Substitutions are numbered along the chain they refer to. In names and notes the source's numbering stands.
B1: AAV1 VP3 (VP3M, VP3 203-736) of the AAV1-VP3-only capsid (natural protein, adeno-associated virus serotype 1 (AAV1), UniProt Q9WBP8 204-736, looked up)
chain: ASGGGAPMADNNEGADGVGNASGNWHCDSTWLGDRVITTSTRTWALPTYNNHLYKQISSASTGASNDNHYFGYSTPWGYFDFNRFHCHFSPRDWQRLINNNWGFRPKRLNFKLFNIQVKEVTTNDGVTTIANNLTSTVQVFSDSEYQLPYVLGSAHQGCLPPFPADVFMIPQYGYLTLNNGSQAVGRSSFYCLEYFPSQMLRTGNNFTFSYTFEEVPFHSSYAHSQSLDRLMNPLIDQYLYYLNRTQNQSGSAQNKDLLFSRGSPAGMSVQPKNWLPGPCYRQQRVSKTKTDNNNSNFTWTGASKYNLNGRESIINPGTAMASHKDDEDKFFPMSGVMIFGKESAGASNTALDNVMITDEEEIKATNPVATERFGTVAVNFQSSSTDPATGDVHAMGALPGMVWQDRDVYLQGPIWAKIPHTDGHFHPSPLMGGFGLKNPPPQILIKNTPVPANPPAEFSATKFASFITQYSTGQVSVEIEWELQKENSKRWNPEVQYTSNYAKSANVDFTVDNNGLYTEPRPIGTRYLTRPL
modifications: N-terminal methionine M203 removed; A204 acetylated at the N terminus
B2: AAV1-M211V-VP3 (VP3 of the AAV1-M211V-VP3-only capsid) (natural protein, adeno-associated virus serotype 1 (AAV1), UniProt Q9WBP8 204-736, looked up)
chain: B1 chain with M8V
modifications: N-terminal acetylation (NTA)

Biological target: the molecule itself
Experiment: native MS

Row | Protein | stoichiometry N | binding result
1 | B1 | 60 | 
2 | B2 |  | binds
